Measured values: patent US20110182904A1 (published 2011)
Where no end group is shown, it is not given here.

T1: human bone morphogenic protein 4 (BMP4) (human, UniProt P12644 293-408)
T1 construct: Bought recombinant human BMP4 (R&D Systems); also called recombinant human BMP4
T1 sequence: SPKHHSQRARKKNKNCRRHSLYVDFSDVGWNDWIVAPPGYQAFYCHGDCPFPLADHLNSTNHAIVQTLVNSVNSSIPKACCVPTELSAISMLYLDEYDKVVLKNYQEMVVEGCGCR

T2: BMP2 epitope peptide QAKHKQRKRLKSSCKRH (SEQ ID NO:93) (human, also: biotin conjugated, site not given here)
T2 construct: Biotinylated peptide captured on a streptavidin chip
T2 peptide: QAKHKQRKRLKSSCKRH

T3: BMP2 epitope peptide ISMLYLDENEKVVLK (SEQ ID NO:92) (human, also: biotin conjugated, site not given here)
T3 construct: Biotinylated peptide captured on a streptavidin chip
T3 peptide: ISMLYLDENEKVVLK


Columns and labels:
[1] = biological target: T4, human bone morphogenic protein 2 (BMP2) (human, UniProt P12643 283-396, Disulfide-linked homodimer of this chain (non-reduced band of about 36 kDa, monomers of 17-18 kDa); one copy is given.); assay: SPR (Biacore); mAb captured via anti-human Fc, BMP flowed at 10 nM
T4 construct: Bought recombinant human BMP2 (R&D Systems or Medtronic); also called recombinant human BMP2
Experimental: (§1) The antigen-antibody association kinetics was followed for 2 minutes and the dissociation kinetics was followed for 8 minutes. The association and dissociation curves were fit to a 1:1 Langmuir binding model using BIAevaluation software (Biacore, AB).

[2] = biological target: T1, human bone morphogenic protein 4 (BMP4); assay: as above
Experimental: as §1

[3] = biological target: T4, human bone morphogenic protein 2 (BMP2); assay: cell-based or functional assay
[4] = biological target: T1, human bone morphogenic protein 4 (BMP4); assay: cell-based or functional assay
[5] = biological target: T2, BMP2 epitope peptide QAKHKQRKRLKSSCKRH …; assay: SPR (Biacore); biotinylated peptide on streptavidin chip, antibody at 40 ug/ml
[6] = biological target: T3, BMP2 epitope peptide ISMLYLDENEKVVLK …; assay: as above
[7] = biological target: T1, human bone morphogenic protein 4 (BMP4); assay: Biacore competition: mAb (two-fold series from 400 nM) pre-incubated with BMP4 (3-10 nM), mixture injected over immobilised type II BMP receptor; response = BMP4 binding to the receptor
Experimental: Both type-I and type-II BMP receptors were covalently linked to a CM5 chip (carboxy methyl dextran coated chip) via primary amines, using the standard amine coupling chemistry and kit provided by Biacore. Mixtures of antibody-antigen complex were flowed across the immobilized receptors. […] Antibody-antigen mixtures were injected at a flow rate of 5 μl/min for 3 minutes.

T4 sequence (P12643 283-396 limits assumed): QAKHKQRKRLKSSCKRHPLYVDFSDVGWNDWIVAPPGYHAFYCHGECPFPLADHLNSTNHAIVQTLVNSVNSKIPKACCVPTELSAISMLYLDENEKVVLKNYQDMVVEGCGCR

| Binder | Kd [1] [nM] | koff [1] [s⁻¹] | kon [1] [M⁻¹ s⁻¹] | Kd [2] [nM] | koff [2] [s⁻¹] | kon [2] [M⁻¹ s⁻¹] | IC50 (read off the curve) [3] [µg/mL] | IC50 (read off the curve) [4] [µg/mL] | binding result [5] | binding result [6] | IC50 (read off the curve) [7] [nM] |
| --- | --- | --- | --- | --- | --- | --- | --- | --- | --- | --- | --- |
| 1F6 human monoclonal antibody (antibody, V domains shown, Human IgG from a HuMAb/KM mouse hybridoma) VH: QVQLQESGPGLVKPSETLSLTCTVSGDSISSYYWSWIRQPPGKGLEWIGYIYYSGSTRYNPPLKSRVTISVDTSKNQFSLKLSSVTAADTAVYYCARICSSTSCWGWFDPWGQGTLVTVSS VL: not shown | 0.02 | 8.49e-05 | 4.65e+06 | 0.0003 | 1.27e-06 | 4.97e+06 |  |  |  |  |  |
| 11F2 human monoclonal antibody (antibody, V domains shown, Human IgG from a HuMAb/KM mouse hybridoma) VH: QVQLQESGPGLVKPSETLSLTCTVSGDSIRSYYWSWIRQPPGKGLEWIGYIYYRGSTHYNPSLKSRVTISVDTSKNQFSLKMSSVTAADTAVYYCARICSSISCWGWFDPWGQGTLVTVSS VL: not shown | 0.01 | 3.09e-05 | 2.83e+06 | 0.0007 | 3.04e-08 | 45300 | ~3 | ~3 | binds |  |  |
| 8B3 human monoclonal antibody (antibody, V domains shown, Human IgG from a HuMAb/KM mouse hybridoma) VH: QVQLVQSGAEVKKPGSSVKVSCKASGGTFSSYAISWVRQAPGQGLEWMGRIIPILGIAQYAQKFQGRVTLTADKSTSTAYMELSSLRSEDTAVYYCARGKDIWGQGTMVTVSS VL: not shown | 0.19 | 0.000582 | 3.02e+06 | 0.18 | 0.000827 | 4.69e+06 |  |  |  | binds |  |
| 15F3 human monoclonal antibody (antibody, V domains shown, Human IgG from a HuMAb/KM mouse hybridoma) VH: QVQLVQSGAEVKKPGSSVKVSCKASGGTFSSYAISWVRQAPGQGLEWMGRIIPILGIAQYAQKFQGRVTLTADKSTNTAYMELSSLRSEDTAVYYCARGKDIWGQGTMVTVSS VL: not shown | 0.03 | 0.00027 | 7.96e+06 | 0.18 | 0.00056 | 3.14e+06 |  |  |  |  |  |
| 16B7 human monoclonal antibody (antibody, V domains shown, Human IgG from a HuMAb/KM mouse hybridoma) VH: QVQLVESGGGVVQPGRSLRLSCAASGFTFSNYGIHWVRQAPGKGLEWVAVIWYDGSHKYYADSMKGRFTISRDNSKNTLDLQMNSLRAEDTAVYYCARGSSSWYFDLWGRGTLVTVSS VL: DIQMTQSPSSLSASVGDRVTITCRASQGISSWLAWYQQKPEKAPKSLIYAASSLQSGVPSRFSGSGSGTDFTLTISSLQPEDFATYYCQQYNSYPLTFGGGTKVEIK | 0.08 | 0.000282 | 3.7e+06 | 0.02 | 6.12e-05 | 2.86e+06 |  |  | binds |  |  |

The next lines start with the values.

| Kd [1] [nM] | koff [1] [s⁻¹] | kon [1] [M⁻¹ s⁻¹] | Kd [2] [nM] | koff [2] [s⁻¹] | kon [2] [M⁻¹ s⁻¹] | IC50 (read off the curve) [3] [µg/mL] | IC50 (read off the curve) [4] [µg/mL] | binding result [5] | binding result [6] | IC50 (read off the curve) [7] [nM] | Binder |
| --- | --- | --- | --- | --- | --- | --- | --- | --- | --- | --- | --- |
| 0.28 | 0.00114 | 4e+06 | 0.42 | 0.0012 | 2.84e+06 |  |  |  | binds |  | 7D6 human monoclonal antibody (antibody, V domains shown, Human IgG from a HuMAb/KM mouse hybridoma) VH: QVQLVQSGAEVKKPGSSVKVSCKASGGTFSSYAISWVRQAPGQGLEWMGRIIPILGIVNYAQKFQGRVTITADKSTSTAYMELSSLRSEDTAVYYCARGKDIWGQGTMVTVSS VL: EIVLTQSPGTLSLSPGERATLSCRASQIVISTYLAWYQQKPGQAPRLLIYGASSRATGIPDRFSGSGSGTDFTLTISRLEPEDFAVYYCQQYGSSPCTFGQGTKLEIK |
| 0.12 | 0.000654 | 5.71e+06 | 0.38 | 0.0014 | 3.65e+06 |  |  |  |  | ~100 | 33F7 human monoclonal antibody (antibody, V domains shown, Human IgG from a HuMAb/KM mouse hybridoma) VH: QVQLVQSGAEVKKPGSSVKVSCKASGGTFSSYAINWVRQAPGQGLEWMGRLIPILGIANYAQKFQGRVTITADKSTSTAYMELSSLRSEDTAVYYCARGKDIWGQGTMVTVSS VL: EIVLTQSPGTLSLSPGERVTLSCRASQSVSSNYLAWYQQKPGQAPRLLIKGASSRATGIPDRFSGSGSGTDFTLTISRLEPEDFAVYYCQQYGSSPCTFGQGTKLEIK |
| 0.02 | 8.26e-05 | 3.39e+06 | 0.28 | 0.000482 | 1.75e+06 |  |  | binds |  | ~20 | 12E3 human monoclonal antibody (antibody, V domains shown, Human IgG from a HuMAb/KM mouse hybridoma) VH: QVQLVESGGGVVQPGRSLRLSCAASGFTFSSYGMHWVRQAPGKGLEWVAVIWDDGRKKYYADSVKGRFTISRDNSKNTLYLQMNSLRAEDTAVYYCAREPAGVWGMDVWGQGTTVTVSS VL: DIQMTQSPSSLSASVGDRVTITCRASQGISSWLAWYQQKPEKAPKSLIYAASSLQSGVPSRFSGSGSGTDFTLTISSLQPEDFATYYCQQYNSYPLTFGGGTKVEIK |
| 0.19 | 0.000385 | 2.04e+06 | 0.75 | 0.00197 | 2.61e+06 |  |  |  |  |  | 10F6 human monoclonal antibody (antibody, V domains shown, Human IgG from a HuMAb/KM mouse hybridoma) VH: QVQLVESGGGVVQPGRSLRLSCAASGFTFRSYGIHWVRQAPGKGLEWVAVIWYDGSHKYYADSVKGRFTISRDNSKNTLDLQMNSLRAEDTAVYYCVRGSSNWYFDYWGQGTLVTVSS VL: DIQMTQSPSSLSASVGDRVTITCRASQGISSWLAWYQQKPEKAPKSLIYAASSLQSGVPSRFSGSGSGTDFTLTISSLQPEDFATYYCQQYNSYPLTFGGGTKVEIK |
| 0.1 | 0.000198 | 1.42e+06 | 0.3 | 0.000497 | 2e+06 |  |  |  |  |  | 6H4 human monoclonal antibody (antibody, V domains shown, Human IgG from a HuMAb/KM mouse hybridoma) VH: QVHLQQWGAGLLKPSETLSLTCAVYGGSFSGYYWSWIRQPPGKGLEWIGEINHSGSTNYNPSLKSRVTISVDTSKNQFSLKLSSVTAADTAVYYCAREYYYGSESEYFQHWGQGTLVTVSS VL: EIVLTQSPATLSLSPGERATLSCRASQSVSSYLAWYQQKPGQAPRLLIYDASNRATGIPARFSGSGSGTDFTLTISSLEPEDFAVYYCQQRSNWPHTFGQGTKLEIK |
